{
  "source": "IntAct's records for PubMed 35512704",
  "parents": {"B1": {"name": "Speckle-type POZ protein (Homo sapiens), O43791 (parent)", "chain": "MSRVPSPPPPAEMSSGPVAESWCYTQIKVVKFSYMWTINNFSFCREEMGEVIKSSTFSSGANDKLKWCLRVNPKGLDEESKDYLSLYLLLVSCPKSEVRAKFKFSILNAKGEETKAMESQRAYRFVQGKDWGFKKFIRRDFLLDEANGLLPDDKLTLFCEVSVVQDSVNISGQNTMNMVKVPECRLADELGGLWENSRFTDCCLCVAGQEFQAHKAILAARSPVFSAMFEHEMEESKKNRVEINDVEPEVFKEMMCFIYTGKAPNLDKMADDLLAAADKYALERLKVMCEDALCSNLSVENAAEILILADLHSADQLKTQAVDFINYHASDVLETSGWKSMVVSHPHLVAEAYRSLASAQCPFLGPPRKRLKQS", "partner": "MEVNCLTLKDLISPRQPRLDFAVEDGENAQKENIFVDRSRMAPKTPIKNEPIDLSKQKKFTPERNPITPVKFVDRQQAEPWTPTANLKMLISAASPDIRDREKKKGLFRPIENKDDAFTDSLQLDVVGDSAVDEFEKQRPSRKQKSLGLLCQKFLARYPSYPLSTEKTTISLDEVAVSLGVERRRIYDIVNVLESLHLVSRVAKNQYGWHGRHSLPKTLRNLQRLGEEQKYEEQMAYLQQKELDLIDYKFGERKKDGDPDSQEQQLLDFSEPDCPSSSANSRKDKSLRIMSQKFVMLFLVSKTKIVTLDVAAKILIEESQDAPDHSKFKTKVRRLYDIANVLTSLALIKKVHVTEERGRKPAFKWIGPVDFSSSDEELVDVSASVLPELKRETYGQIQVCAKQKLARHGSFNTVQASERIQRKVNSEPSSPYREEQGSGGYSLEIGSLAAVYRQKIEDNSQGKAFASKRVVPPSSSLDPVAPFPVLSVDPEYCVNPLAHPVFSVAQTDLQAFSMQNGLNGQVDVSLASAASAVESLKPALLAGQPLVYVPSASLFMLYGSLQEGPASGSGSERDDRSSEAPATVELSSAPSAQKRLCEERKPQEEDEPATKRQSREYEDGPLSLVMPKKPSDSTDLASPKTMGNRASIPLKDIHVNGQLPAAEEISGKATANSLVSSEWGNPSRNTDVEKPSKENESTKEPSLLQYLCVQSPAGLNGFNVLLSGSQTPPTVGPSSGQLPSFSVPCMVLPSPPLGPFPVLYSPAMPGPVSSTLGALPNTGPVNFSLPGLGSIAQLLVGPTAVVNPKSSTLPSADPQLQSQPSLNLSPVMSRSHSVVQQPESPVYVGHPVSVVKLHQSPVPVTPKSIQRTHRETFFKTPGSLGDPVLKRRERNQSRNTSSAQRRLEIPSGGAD"}, "B2": {"name": "Speckle-type POZ protein (Homo sapiens), O43791 (parent)", "chain": "B1 chain", "partner": "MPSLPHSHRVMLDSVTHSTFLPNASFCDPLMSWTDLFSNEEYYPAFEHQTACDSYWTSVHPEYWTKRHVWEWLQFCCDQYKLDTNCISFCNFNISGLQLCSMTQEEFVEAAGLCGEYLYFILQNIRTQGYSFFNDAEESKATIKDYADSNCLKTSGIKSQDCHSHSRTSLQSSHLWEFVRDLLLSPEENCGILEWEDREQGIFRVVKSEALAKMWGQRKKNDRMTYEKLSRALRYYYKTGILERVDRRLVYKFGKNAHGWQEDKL"}, "B3": {"name": "Speckle-type POZ protein (Homo sapiens), O43791 (parent)", "chain": "B1 chain", "partner": "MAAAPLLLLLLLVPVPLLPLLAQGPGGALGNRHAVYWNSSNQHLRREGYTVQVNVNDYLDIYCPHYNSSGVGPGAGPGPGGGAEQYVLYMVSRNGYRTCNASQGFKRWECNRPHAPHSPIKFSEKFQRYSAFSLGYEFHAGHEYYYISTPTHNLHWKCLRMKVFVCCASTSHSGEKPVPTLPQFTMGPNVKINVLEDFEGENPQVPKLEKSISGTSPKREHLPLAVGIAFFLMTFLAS"}},
  "data": [
    {"variants_of": "B1", "details": "with e2f7_human E2F7, Q96AV8", "values": [
      {"variant": "MSRVPSPPPPAEMSSGPVAESWCYTQIKVVKFSYMWTINNFSFCREEMGEVIKSSTFSSGANDKLKWCLRVNPKGLDEESKDYLSLYLLLVSCPKSEVRAKFKFSILNAKGEETKAMESQRAYRFVQGKDWGVKKFIRRDFLLDEANGLLPDDKLTLFCEVSVVQDSVNISGQNTMNMVKVPECRLADELGGLWENSRFTDCCLCVAGQEFQAHKAILAARSPVFSAMFEHEMEESKKNRVEINDVEPEVFKEMMCFIYTGKAPNLDKMADDLLAAADKYALERLKVMCEDALCSNLSVENAAEILILADLHSADQLKTQAVDFINYHASDVLETSGWKSMVVSHPHLVAEAYRSLASAQCPFLGPPRKRLKQS", "note": "[F133V]", "effect of a mutation on the interaction": "with no effect"}
    ]},
    {"variants_of": "B1", "details": "with e2f7_human E2F7, Q96AV8", "remark": "another data set of the same source", "values": [
      {"variant": "MSRVPSPPPPAEMSSGPVAESWCYTQIKVVKFSYMWTINNFSFCREEMGEVIKSSTFSSGANDKLKWCLRVNPKGLDEESKDYLSLCLLLVSCPKSEVRAKFKFSILNAKGEETKAMESQRAYRFVQGKDWGFKKFIRRDFLLDEANGLLPDDKLTLFCEVSVVQDSVNISGQNTMNMVKVPECRLADELGGLWENSRFTDCCLCVAGQEFQAHKAILAARSPVFSAMFEHEMEESKKNRVEINDVEPEVFKEMMCFIYTGKAPNLDKMADDLLAAADKYALERLKVMCEDALCSNLSVENAAEILILADLHSADQLKTQAVDFINYHASDVLETSGWKSMVVSHPHLVAEAYRSLASAQCPFLGPPRKRLKQS", "note": "[Y87C]", "effect of a mutation on the interaction": "with no effect"}
    ]},
    {"variants_of": "B2", "details": "with elf5_human ELF5, Q9UKW6", "values": [
      {"variant": "MSRVPSPPPPAEMSSGPVAESWCYTQIKVVKFSYMWTINNFSFCREEMGEVIKSSTFSSGANDKLKWCLRVNPKGLDEESKDYLSLYLLLVSCPKSEVRAKCKFSILNAKGEETKAMESQRAYRFVQGKDWGFKKFIRRDFLLDEANGLLPDDKLTLFCEVSVVQDSVNISGQNTMNMVKVPECRLADELGGLWENSRFTDCCLCVAGQEFQAHKAILAARSPVFSAMFEHEMEESKKNRVEINDVEPEVFKEMMCFIYTGKAPNLDKMADDLLAAADKYALERLKVMCEDALCSNLSVENAAEILILADLHSADQLKTQAVDFINYHASDVLETSGWKSMVVSHPHLVAEAYRSLASAQCPFLGPPRKRLKQS", "note": "[F102C]", "effect of a mutation on the interaction": "with no effect"}
    ]},
    {"variants_of": "B2", "details": "with elf5_human ELF5, Q9UKW6", "remark": "another data set of the same source", "values": [
      {"variant": "MSRVPSPPPPAEMSSGPVAESWCYTQIKVVKFSYMWTINNFSFCREEMGEVIKSSTFSSGANDKLKWCLRVNPKGLDEESKDYLSLCLLLVSCPKSEVRAKFKFSILNAKGEETKAMESQRAYRFVQGKDWGFKKFIRRDFLLDEANGLLPDDKLTLFCEVSVVQDSVNISGQNTMNMVKVPECRLADELGGLWENSRFTDCCLCVAGQEFQAHKAILAARSPVFSAMFEHEMEESKKNRVEINDVEPEVFKEMMCFIYTGKAPNLDKMADDLLAAADKYALERLKVMCEDALCSNLSVENAAEILILADLHSADQLKTQAVDFINYHASDVLETSGWKSMVVSHPHLVAEAYRSLASAQCPFLGPPRKRLKQS", "note": "[Y87C]", "effect of a mutation on the interaction": "with no effect"}
    ]},
    {"variants_of": "B2", "details": "with elf5_human ELF5, Q9UKW6", "remark": "another data set of the same source", "values": [
      {"variant": "MSRVPSPPPPAEMSSGPVAESWCYTQIKVVKFSYMWTINNFSFCREEMGEVIKSSTFSSGANDKLKWCLRVNPKGLDEESKDYLSLYLLLVSCPKSEVRAKFKFSILNAKGEETKAMESQRAYRFVQGKDWGVKKFIRRDFLLDEANGLLPDDKLTLFCEVSVVQDSVNISGQNTMNMVKVPECRLADELGGLWENSRFTDCCLCVAGQEFQAHKAILAARSPVFSAMFEHEMEESKKNRVEINDVEPEVFKEMMCFIYTGKAPNLDKMADDLLAAADKYALERLKVMCEDALCSNLSVENAAEILILADLHSADQLKTQAVDFINYHASDVLETSGWKSMVVSHPHLVAEAYRSLASAQCPFLGPPRKRLKQS", "note": "[F133V]", "effect of a mutation on the interaction": "with no effect"}
    ]},
    {"variants_of": "B2", "details": "with elf5_human ELF5, Q9UKW6", "remark": "another data set of the same source", "values": [
      {"variant": "MSRVPSPPPPAEMSSGPVAESWCYTQIKVVKFSYMWTINNFSFCREEMGEVIKSSTFSSGANDKLKWCLRVNPKGLDEESKDYLSLYLLLVSCPKSEVRAKFKFSILNAKGEETKAMESQRAYRFVQGKDWGLKKFIRRDFLLDEANGLLPDDKLTLFCEVSVVQDSVNISGQNTMNMVKVPECRLADELGGLWENSRFTDCCLCVAGQEFQAHKAILAARSPVFSAMFEHEMEESKKNRVEINDVEPEVFKEMMCFIYTGKAPNLDKMADDLLAAADKYALERLKVMCEDALCSNLSVENAAEILILADLHSADQLKTQAVDFINYHASDVLETSGWKSMVVSHPHLVAEAYRSLASAQCPFLGPPRKRLKQS", "note": "[F133L]", "effect of a mutation on the interaction": "with no effect"}
    ]},
    {"variants_of": "B3", "details": "with efna3_human EFNA3, P52797", "values": [
      {"variant": "MSRVPSPPPPAEMSSGPVAESWCYTQIKVVKFSYMWTINNFSFCREEMGEVIKSSTFSSGANDKLKWCLRVNPKGLDEESKDYLSLYLLLVSCPKSEVRAKFKFSILNAKGEETKAMESQRAYRFVQGKDWGVKKFIRRDFLLDEANGLLPDDKLTLFCEVSVVQDSVNISGQNTMNMVKVPECRLADELGGLWENSRFTDCCLCVAGQEFQAHKAILAARSPVFSAMFEHEMEESKKNRVEINDVEPEVFKEMMCFIYTGKAPNLDKMADDLLAAADKYALERLKVMCEDALCSNLSVENAAEILILADLHSADQLKTQAVDFINYHASDVLETSGWKSMVVSHPHLVAEAYRSLASAQCPFLGPPRKRLKQS", "note": "[F133V]", "effect of a mutation on the interaction": "with no effect"}
    ]},
    {"variants_of": "B3", "details": "with efna3_human EFNA3, P52797", "remark": "another data set of the same source", "values": [
      {"variant": "MSRVPSPPPPAEMSSGPVAESWCYTQIKVVKFSYMWTINNFSFCREEMGEVIKSSTFSSGANDKLKWCLRVNPKGLDEESKDYLSLYLLLVSCPKSEVRAKFKFSILNAKGEETKAMESQRAYRFVQGKDWGLKKFIRRDFLLDEANGLLPDDKLTLFCEVSVVQDSVNISGQNTMNMVKVPECRLADELGGLWENSRFTDCCLCVAGQEFQAHKAILAARSPVFSAMFEHEMEESKKNRVEINDVEPEVFKEMMCFIYTGKAPNLDKMADDLLAAADKYALERLKVMCEDALCSNLSVENAAEILILADLHSADQLKTQAVDFINYHASDVLETSGWKSMVVSHPHLVAEAYRSLASAQCPFLGPPRKRLKQS", "note": "[F133L]", "effect of a mutation on the interaction": "with no effect"}
    ]}
  ]
}
